Data as given in IntAct's records for PubMed 18818696.

B1: Protein SGT1 homolog (Homo sapiens), Q9Y2Z0-2 (parent)
chain: MAAAAAGTATSQRFFQSFSDALIDEDPQAALEELTKALEQKPDDAQYYCQRAYCHILLGNYCVAVADAKKSLELNPNNSTAMLRKGICEYHEKNYAAALETFTEGQKLDSADANFSVWIKRCQEAQNGSESEVWTHQSKIKYDWYQTESQVVITLMIKNVQKNDVNVEFSEKELSALVKLPSGEDYNLKLELLHPIIPEQSTFKVLSTKIEIKLKKPEAVRWEKLEGQGDVPTPKQFVADVKNLYPSSSPYTRNWDKLVGEIKEEEKNEKLEGDAALNRLFQQIYSDGSDEVKRAMNKSFMESGGTVLSTNWSDVGKRKVEINPPDDMEWKKY

Variants of: B1
Settings: with skp1_human SKP1, P63208
Sequence of skp1_human SKP1, P63208 (P63208 whole entry): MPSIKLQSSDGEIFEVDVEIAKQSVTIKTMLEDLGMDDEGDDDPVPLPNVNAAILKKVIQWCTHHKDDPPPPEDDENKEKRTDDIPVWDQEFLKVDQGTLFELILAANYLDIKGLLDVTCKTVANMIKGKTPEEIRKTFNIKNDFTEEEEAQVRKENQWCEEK

| effect of a mutation on the interaction | Variant |
| --- | --- |
| increasing interaction | Y145R |
